The values below come from article PMC2682205, “Cdc7p-Dbf4p Regulates Mitotic Exit by Inhibiting Polo Kinase” (PLoS Genetics, 2009).

The target of the test is T1, GST-PoloPBD (Polo amino acids 357–705) (budding yeast (S. cerevisiae), UniProt P32562 357-705).
T1 construct: Cdc5p (Polo), budding yeast; amino acids 357-705 with the polo-box domain; Cloned into pGEX-KG; also called GST-PBD; source: E. coli BL21, purified (glutathione-agarose, dialysis)
T1 sequence (looked up): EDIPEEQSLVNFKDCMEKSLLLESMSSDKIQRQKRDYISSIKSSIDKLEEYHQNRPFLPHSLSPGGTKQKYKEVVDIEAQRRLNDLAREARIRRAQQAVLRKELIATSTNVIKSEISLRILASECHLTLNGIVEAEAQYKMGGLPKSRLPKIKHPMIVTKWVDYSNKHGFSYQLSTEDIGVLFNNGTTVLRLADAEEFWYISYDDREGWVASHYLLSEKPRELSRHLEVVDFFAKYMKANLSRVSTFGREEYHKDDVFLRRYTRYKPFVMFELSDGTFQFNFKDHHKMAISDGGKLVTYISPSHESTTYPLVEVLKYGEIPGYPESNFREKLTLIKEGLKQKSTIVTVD
Nature of the test: pull-down; GST or GST-PBD with Sumo or Sumo-Dbf4p on glutathione-agarose, 20 mM Tris-HCl pH 7.0, 300 mM NaCl, 0.5% NP-40, 1 mM EGTA, 1 hour at 4°C; blots with anti-GST-Polo PBD and anti-Smt3p. Particulars: both partners purified.

B1: Sumo-Dbf4p_(67–109) (domain or fragment, budding yeast (S. cerevisiae), UniProt P32325 66-109, looked up)
chain: QQQQHLHEKKRARIERARSIEGAVQVSKGTGLKNVEPRVTPKEL
notes: Dbf4p, budding yeast; Cloned into pSUMO (LifeSensors Inc.); also called Dbf4p PIR; source: E. coli BL21, purified (Ni++ column, imidazole gradient)
With B1, the binding result was “binds”.
